Reference: US20240141027A1 (BIOARCTIC, published 2024)
Values belong to the binder of their own block, whether it stands above or below them.

Legend:
[1] = target: T1, mTfR1 expressed on cell surfaces of Immortalized Mouse Cerebral Capillary Endothelial Cells (cEND) (mouse, UniProt Q62351 1-763); assay: flow cytometry on cEND cells, 100 nM, 4° C., anti-mouse IgG-PE
T1 construct: whole, on cells; also called mTfR1 on cEND cells
Method: Binding and uptake mediated by TfR1 was measured on Immortalized Mouse Cerebral Capillary Endothelial Cells (cEND) (ABM, #T0290).
The pellet was resuspended in PBS and 200,000 cells per well were seeded in U-bottom 96-well Corning plates for flow cytometry staining. Cells were then washed with PBS and incubated with 100 nM of one of the mAb158-8D3 constructs mAb158-scLc-8D3-Ig.1, mAb158-scLc-8D3-Ig.2 and mAb158-scLc-8D3-Ig.3, control 8D3 IgG (light chain of SEQ ID NO:17, heavy chain of SEQ ID NO:19) or murine IgG control for 45 min at 4° C. After primary incubation, cells were washed twice with ice cold PBS, and mAb158-8D3 constructs were captured using a fluorescently labeled secondary anti-mouse IgG-PE antibody (BD Biosciences, 550589). After incubation, cells were washed twice with PBS and resuspended in 200 μl PBS. Cells were acquired in a BD FACSLyric flow cytometer system (BD Biosciences) and samples were analyzed using FCS Express software (De Novo Software).

[2] = target: T2, recombinant murine transferrin receptor 1 (mTfR1), extracellular domain fused to a His-tag (murine, UniProt Q62351 89-763); assay: indirect ELISA, plates coated with recombinant mTfR1
T2 construct: Position of the His-tag (N or C) unknown; also called recombinant mTfR1; murine TfR1; not shown: His-tag
Method: Binding of selected expressed constructs to mTfR1 was assessed by indirect ELISA (FIG. 4). In brief, half area 96-well plates (Corning, #3690) were coated with 1 μg/ml recombinant mTfR1, produced as described in Example 4, in PBS overnight at 4° C. The coated plates were blocked using Pierce protein-free blocking solution (Thermo Fisher Scientific, #37572) for 1 h at room temperature with shaking and washed four times in PBS containing 0.1% TWEEN-20. Serial dilutions (1:3) of expressed constructs in incubation buffer (1% BSA, 0.1% TWEEN-20 in PBS) were incubated for 1 h at room temperature. Following the four wash steps, bound test constructs were detected by addition of anti-mouse-IgG F(ab′)2-HRP antibody (Jackson Immuno Research, #115-035-006) at 1:1250 dilution in incubation buffer (1 h, room temperature). Following four wash steps, K-Blue® Aqueous TMB substrate (Neogen, #331177) was added to the wells for 15 min at room temperature before the reaction was stopped with 1:1 dilution of 0.5 M H₂SO₄. The optical density at 450 nm was recorded (Spark, Tecan) and background signal was subtracted before analysis.

[3] = target: T2, recombinant murine transferrin receptor …; assay: SPR (Biacore 8K), mTfR1 amine-coupled on CM5 chip, single cycle kinetics
Method: Monovalent binding interaction for mAb158-scLc-8D3-Ig.8 against murine TfR1 was measured using surface plasmon resonance (Biacore 8K, Cytiva). A Cm5 sensor chip (Cytiva, #BR100399) was immobilized with 3 μg/ml of mTfR1 using the amine coupling kit type 2 (Cytiva, #BR100633) according to the manufacturer's instruction. A 2-fold dilution series in HBS-EP+(Cytiva, #BR100669) starting at 50 nM of analyte was injected in duplicates over the immobilized ligand and the interaction was measured using the single cycle kinetics method with a contact time of 160 s at a flow rate of […] followed by a dissociation time of 1000 s.

T1 sequence (Q62351 whole entry): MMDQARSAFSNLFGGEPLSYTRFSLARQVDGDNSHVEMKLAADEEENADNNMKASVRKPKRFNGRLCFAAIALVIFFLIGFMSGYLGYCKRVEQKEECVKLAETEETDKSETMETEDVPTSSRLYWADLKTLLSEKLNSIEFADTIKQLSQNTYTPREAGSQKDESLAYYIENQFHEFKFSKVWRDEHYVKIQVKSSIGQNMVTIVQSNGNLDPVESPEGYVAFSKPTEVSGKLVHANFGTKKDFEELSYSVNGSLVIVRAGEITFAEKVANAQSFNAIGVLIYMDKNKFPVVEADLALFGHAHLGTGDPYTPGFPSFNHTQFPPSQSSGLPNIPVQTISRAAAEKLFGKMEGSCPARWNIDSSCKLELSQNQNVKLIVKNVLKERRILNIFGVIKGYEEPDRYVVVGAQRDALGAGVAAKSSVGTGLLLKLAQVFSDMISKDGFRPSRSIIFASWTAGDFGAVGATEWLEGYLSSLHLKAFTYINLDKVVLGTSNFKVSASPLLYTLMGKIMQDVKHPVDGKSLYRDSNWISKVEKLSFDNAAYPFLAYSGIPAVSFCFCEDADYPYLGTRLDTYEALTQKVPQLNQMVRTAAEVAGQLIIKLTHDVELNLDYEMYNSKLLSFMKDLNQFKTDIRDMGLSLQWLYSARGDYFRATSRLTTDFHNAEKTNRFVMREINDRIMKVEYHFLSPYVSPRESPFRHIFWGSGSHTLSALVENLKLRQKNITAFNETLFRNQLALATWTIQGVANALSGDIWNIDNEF
T2 sequence (Q62351 89-763): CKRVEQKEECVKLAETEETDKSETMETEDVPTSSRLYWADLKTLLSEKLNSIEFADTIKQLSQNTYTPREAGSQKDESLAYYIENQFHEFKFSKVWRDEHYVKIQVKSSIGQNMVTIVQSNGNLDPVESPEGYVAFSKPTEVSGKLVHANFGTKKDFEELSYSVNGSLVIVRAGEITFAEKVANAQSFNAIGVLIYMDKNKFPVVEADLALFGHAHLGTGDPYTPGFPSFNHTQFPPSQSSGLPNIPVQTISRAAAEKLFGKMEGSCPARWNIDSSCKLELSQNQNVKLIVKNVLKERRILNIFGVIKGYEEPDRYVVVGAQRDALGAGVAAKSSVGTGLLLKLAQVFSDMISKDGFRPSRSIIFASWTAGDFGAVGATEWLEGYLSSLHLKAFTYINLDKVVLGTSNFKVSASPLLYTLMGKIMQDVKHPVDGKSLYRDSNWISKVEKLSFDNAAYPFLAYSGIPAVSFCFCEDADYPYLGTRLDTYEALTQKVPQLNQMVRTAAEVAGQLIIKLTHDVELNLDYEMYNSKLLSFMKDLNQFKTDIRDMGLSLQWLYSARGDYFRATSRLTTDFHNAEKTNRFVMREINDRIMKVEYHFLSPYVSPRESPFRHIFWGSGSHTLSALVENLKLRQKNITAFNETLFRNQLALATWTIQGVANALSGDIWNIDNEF

binding result [2]: binds
B1: mAb158-scLc-8D3-Ig.2 (bispecific antibody, human IgG1, kappa)
heavy: not shown
chain: DIVMTQAPLSLPVSLGDQASISCRSSQSIVHSNGNTYLEWYLQKPGQSPKLLIYKVSNRFSGVPDRFSGSGSGTDFTLKISRVEAEDLGIYYCFQGSHVPPTFGGGTKLEIKRADAAPTVSIFPPSSEQLTSGGASVVCFLNNFYPKDINVKWKIDGSERQNGVLNSWTDQDSKDSTYSMSSTLTLTKDEYERHNSYTCEATHKTSTSPIVKSFNRNECGGGGSGGGGSGGGGSGGGGSGGGGSEVQLVESGGGLVQPGNSLTLSCVASGFTFSNYGMHWIRQAPKKGLEWIAMIYYDSSKMNYADTVKGRFTISRDNSKNTLYLEMNSLRSEDTAMYYCAVPTSHYVVDVWGQGVSVTVSSGGGGSGGGGSGGGGSDIQMTQSPASLSASLEEIVTITCQASQDIGNWLAWYQQKPGKSPQLLIYGATSLADGVPSRFSGSRSGTQFSLKISRVQVEDIGIYYCLQAYNTPWTFGGGTKLELKRGGGGSGGGGSGGGGSGGGGSGGGGSDIVMTQAPLSLPVSLGDQASISCRSSQSIVHSNGNTYLEWYLQKPGQSPKLLIYKVSNRFSGVPDRFSGSGSGTDFTLKISRVEAEDLGIYYCFQGSHVPPTFGGGTKLEIKRADAAPTVSIFPPSSEQLTSGGASVVCFLNNFYPKDINVKWKIDGSERQNGVLNSWTDQDSKDSTYSMSSTLTLTKDEYERHNSYTCEATHKTSTSPIVKSFNRNEC
notes: Format [LC-L1-scBM-L2-LC]
binding result [1]: binds

binding result [3]: binds
B2: 8D3 Fab (Fab, V domains shown)
VH: EVQLVESGGGLVQPGNSLTLSCVASGFTFSNYGMHWIRQAPKKGLEWIAMIYYDSSKMNYADTVKGRFTISRDNSKNTLYLEMNSLRSEDTAMYYCAVPTSHYVVDVWGQGVSVTVSS
VL: DIQMTQSPASLSASLEEIVTITCQASQDIGNWLAWYQQKPGKSPQLLIYGATSLADGVPSRFSGSRSGTQFSLKISRVQVEDIGIYYCLQAYNTPWTFGGGTKLELKR
notes: Anti-mouse TfR1 control; also called monovalent 8D3 Fab control; monovalent 8D3 Fab

binding result [2]: binds
B3: mAb158-scLc-8D3-Ig.3 (bispecific antibody, human IgG1, kappa)
heavy: not shown
chain: DIVMTQAPLSLPVSLGDQASISCRSSQSIVHSNGNTYLEWYLQKPGQSPKLLIYKVSNRFSGVPDRFSGSGSGTDFTLKISRVEAEDLGIYYCFQGSHVPPTFGGGTKLEIKRADAAPTVSIFPPSSEQLTSGGASVVCFLNNFYPKDINVKWKIDGSERQNGVLNSWTDQDSKDSTYSMSSTLTLTKDEYERHNSYTCEATHKTSTSPIVKSFNRNECGGSSGSGSGSTGTSSSGTGTSAGTTGTSASTSGSGSEVQLVESGGGLVQPGNSLTLSCVASGFTFSNYGMHWIRQAPKKGLEWIAMIYYDSSKMNYADTVKGRFTISRDNSKNTLYLEMNSLRSEDTAMYYCAVPTSHYVVDVWGQGVSVTVSSGGGGSGGGGSGGGGSDIQMTQSPASLSASLEEIVTITCQASQDIGNWLAWYQQKPGKSPQLLIYGATSLADGVPSRFSGSRSGTQFSLKISRVQVEDIGIYYCLQAYNTPWTFGGGTKLELKRGGSSGSGSGSTGTSSSGTGTSAGTTGTSASTSGSGSGGSSGSGSGSTGTSSSGTGTSAGTTGTSASTSGSGSDIVMTQAPLSLPVSLGDQASISCRSSQSIVHSNGNTYLEWYLQKPGQSPKLLIYKVSNRFSGVPDRFSGSGSGTDFTLKISRVEAEDLGIYYCFQGSHVPPTFGGGTKLEIKRADAAPTVSIFPPSSEQLTSGGASVVCFLNNFYPKDINVKWKIDGSERQNGVLNSWTDQDSKDSTYSMSSTLTLTKDEYERHNSYTCEATHKTSTSPIVKSFNRNEC
notes: Format [LC-L1-scBM-L2-LC]
binding result [1]: binds

binding result [2]: binds
B4: mAb158-scLc-8D3-Ig.1 (bispecific antibody, human IgG1, kappa)
heavy: not shown
chain: DIVMTQAPLSLPVSLGDQASISCRSSQSIVHSNGNTYLEWYLQKPGQSPKLLIYKVSNRFSGVPDRFSGSGSGTDFTLKISRVEAEDLGIYYCFQGSHVPPTFGGGTKLEIKRADAAPTVSIFPPSSEQLTSGGASVVCFLNNFYPKDINVKWKIDGSERQNGVLNSWTDQDSKDSTYSMSSTLTLTKDEYERHNSYTCEATHKTSTSPIVKSFNRNECGGGGSGGGGSGGGGSEVQLVESGGGLVQPGNSLTLSCVASGFTFSNYGMHWIRQAPKKGLEWIAMIYYDSSKMNYADTVKGRFTISRDNSKNTLYLEMNSLRSEDTAMYYCAVPTSHYVVDVWGQGVSVTVSSGGGGSGGGGSGGGGSDIQMTQSPASLSASLEEIVTITCQASQDIGNWLAWYQQKPGKSPQLLIYGATSLADGVPSRFSGSRSGTQFSLKISRVQVEDIGIYYCLQAYNTPWTFGGGTKLELKRGGSSGSGSGSTGTSSSGTGTSAGTTGTSASTSGSGSDIVMTQAPLSLPVSLGDQASISCRSSQSIVHSNGNTYLEWYLQKPGQSPKLLIYKVSNRFSGVPDRFSGSGSGTDFTLKISRVEAEDLGIYYCFQGSHVPPTFGGGTKLEIKRADAAPTVSIFPPSSEQLTSGGASVVCFLNNFYPKDINVKWKIDGSERQNGVLNSWTDQDSKDSTYSMSSTLTLTKDEYERHNSYTCEATHKTSTSPIVKSFNRNEC
binding result [1]: binds
